Test results published in publication PMC3544810.

Target: PSD95 (HA-PSD95, VN-PSD95 plasmids) (UniProt P31016)
Test: co-immunoprecipitation, GFP-SPIN90 and HA-PSD95
Details: reference: GFP-SPIN90 WT; sites Y85,Y161,Y227

binding against the reference: weaker
Substance: SPIN90 (from UniProt Q9NZQ3) GFP-SPIN90 YF (Y85,161,227F)
